Data: patent US20250011468A1 (Novo Nordisk, published 2025)
Substitutions are numbered along the chain they refer to.

B1: mAb1-4857 (antibody, V domains shown)
VH: EVQLVESGGGLVQPGRSLKLSCAASGFTFDDYAMHWVRQVPGKGLEWVSGISWRGDIIGYVDSVKGRFTISRDNAKNSLYLQLNSLRAEDTALYYCVKSYGSGSFYNAFDSWGQGTLVTVSS
VL: DIQMTQSPSTLSASAGDRVTITCRASQSISSWLAWYQQKPGKAPKFLIYKASRLERGVPSRFSGSGSGTEFSLTISSLQPDDFATYYCLEYSSYIRTFGQGTKVEIK
B2: mAb4-7786 (bispecific, mAb1-6081/mAb1-6463) (bispecific antibody, V domains shown)
VH 1: B1 VH with D30H
VL 1: B1 VL with E55D
VH 2: not shown
VL 2: not shown
B3: mAb4-5925 (bispecific, mAb1-4857/mAb1-6723) (bispecific antibody, V domains shown)
VH 1: B1 VH
VL 1: B1 VL
VH 2: EVQLVQSGAEVKKPGESLRISCKGSGYSFTTSWIVWVRQMPGKGLEWMGMIDPSDSFTSYSPSFQGHVTISADKSISTAYLQWSSLKASDTAMYYCARLHYYHSEEFDVWGQGTLVTVSS
VL 2: EIVLTQSPGTLSLSPGERATLSCRASQSVSSSYLAWYQQKPGQAPRLLIYGASSRARGIPDRFSGSGSGTDFTLTISRLEPEDFAVYYCQQFGSSRLFTFGQGTKLEIK
B4: mAb1-4861 (antibody, V domains shown)
VH: B1 VH with R54N, I57N
VL: B1 VL
B5: mAb1-4071 (antibody, V domains shown)
VH: EVQLVQSGAEVKKPGESLRISCKGSGYSFTPYWIGWVRQMPGKGLEWMGMIDPSDSYTDYGPSFRGHVTISADKSISTAYLQWSSLKASDTAMYYCARVRIREGAFDIWGQGTMVTVSS
VL: DIVMTQSPLSLPVTPGEPASISCRSSQRLLHSTGYNYLNWYLQKPGQSPQLLIYLGSRRASGVPDRFSGSGSGTDFTLKISRVEAEDVGVYYCMQALHIPYTFGQGTKLEIK
B6: mAb4-7762 (bispecific, mAb1-6584/mAb1-6738) (bispecific antibody, V domains shown)
VH 1: B5 VH with T30R, E103A
VL 1: B5 VL with R28S, G34W, S57K, R58N, A96V
VH 2: EVQLVESGGGLVKPGGSLRLSCAASGFTFSDAWMNWVRQAPGKGLEWVGRIKRKTDGGTTDYAAPVKGRFTISRDDSKNTLYLQMDSLKTEDTAVYYCTTDGIAVAGPLRVYWGQGTLVTVSS
VL 2: not shown
B7: mAb4-7789 (bispecific, mAb1-6584/mAb1-6463) (bispecific antibody, V domains shown)
VH 1: B5 VH with T30R, E103A
VL 1: B5 VL with R28S, G34W, S57K, R58N, A96V
VH 2: not shown
VL 2: not shown
B8: mAb1-4624 (antibody, V domains shown)
VH: B5 VH with S28R, P31S, S54T, R102M, E103S
VL: B5 VL with R28S, G34W, R58N, A96V
B9: mAb1-4707 (antibody, V domains shown)
VH: EVQLVESGGGLVQPGRSLRLSCAASGFTFGDYAMHWVRQAPGKGLEWVSGISWVSGSIGYARSVKGRFTISRDNAKNSLYLQMNSLRAEDTALYYCAKGQYDEDAGMDVWGQGTTVTVSS
VL: DIQMTQSPSSLSASVGDRVTITCRASQSIRSYLNWYQQKPGKAPKLLIYAASSLQSGVPSRFSGSGSGTDFTLTISSLQPEDFATYYCQQGYPTWTFGGGTKVEIK
B10: mAb1-4763 (antibody, V domains shown)
VH: B9 VH with V54N, R62K
VL: B9 VL with S28W, R30S, Q55P

Key:
Experiment in all cases: cell-based or functional assay
[1] = target: T1, human plasma-derived FIXa (Haematologic Technologies Inc) (human, UniProt P00740 47-191; P00740 227-461)
[2] = target: T1, human plasma-derived FIXa (Haematologic …); remark: listed apart in the source
[3] = target: T1, human plasma-derived FIXa (Haematologic …); remark: listed apart in the source

T1 sequence (P00740 47-191, chain 1 of 2): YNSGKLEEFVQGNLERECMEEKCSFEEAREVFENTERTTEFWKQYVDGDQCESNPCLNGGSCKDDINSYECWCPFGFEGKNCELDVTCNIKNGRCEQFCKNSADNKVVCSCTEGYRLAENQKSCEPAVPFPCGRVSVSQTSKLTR
T1 sequence (P00740 227-461, chain 2 of 2): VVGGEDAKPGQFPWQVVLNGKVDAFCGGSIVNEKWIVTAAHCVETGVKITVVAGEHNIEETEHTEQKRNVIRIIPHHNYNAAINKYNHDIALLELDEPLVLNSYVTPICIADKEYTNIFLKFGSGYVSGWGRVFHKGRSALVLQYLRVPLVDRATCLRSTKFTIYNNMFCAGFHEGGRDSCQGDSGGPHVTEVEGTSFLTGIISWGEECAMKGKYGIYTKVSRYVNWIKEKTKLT

FXa generation rate at 3.2 nM mAb [1] [pM/min]	FXa generation rate at 6.3 nM mAb [1] [pM/min]	FXa generation rate at 12.5 nM mAb [1] [pM/min]	FXa generation rate at 25 nM mAb [1] [pM/min]	FXa generation rate at 50 nM mAb [1] [pM/min]	FXa generation rate at 100 nM mAb [1] [pM/min]	FXa generation rate at 200 nM mAb [1] [pM/min]	Peak stimulatory activity relative to 224F3 [2]	Maximum stimulation (fold), at 4060 nM BiAb [3] [fold]	Maximum stimulation (fold), at 533 nM BiAb [3] [fold]	Maximum stimulation (fold), at 109 nM BiAb [3] [fold]	Maximum stimulation (fold), at 253 nM BiAb [3] [fold]	Binder
302	491	685	1000	1190	1260	1300	66.5 fold relative to 224F3	–	–	–	–	B1
–	–	–	–	–	–	–	–	1270	–	–	–	B2
–	–	–	–	–	–	–	–	–	5200	–	–	B3
434	415	385	382	352	364	411	21.7 fold relative to 224F3	–	–	–	–	B4
43	65	97	131	173	198	208	10.4 fold relative to 224F3	–	–	–	–	B5
–	–	–	–	–	–	–	–	–	–	3190	–	B6
–	–	–	–	–	–	–	–	–	–	–	3530	B7
383	550	752	851	989	1000	960	50.1 fold relative to 224F3	–	–	–	–	B8
662	714	697	685	629	581	586	35.9 fold relative to 224F3	–	–	–	–	B9
370	390	381	373	369	375	401	20 fold relative to 224F3	–	–	–	–	B10
